{"source": "paper PMC9881146", "key": {"[1]": {"biological_target": "Cdc13_(OB234), purified, large tag removed (C. glabrata)", "test": "AUC"}, "[2]": {"biological_target": "Cdc13 OB1 domain (Strep-TEV-Strep-OB1, residues 1-176) (C. glabrata)", "test": "AUC"}, "[3]": {"biological_target": "Cdc13 OB1 domain without its C-terminal tail (OB1 ΔC-ter) (C. glabrata)", "test": "AUC"}, "[4]": {"biological_target": "OB1 ΔC-ter Q39A A40W (C. glabrata)", "test": "AUC"}, "[5]": {"biological_target": "OB1 ΔC-ter Q39A (C. glabrata)", "test": "AUC"}, "[6]": {"biological_target": "Cdc13_(OB23) (H10-TEV-Cdc13_(OB23)) (C. glabrata)", "test": "mass photometry"}, "[7]": {"biological_target": "Cdc13_(OB23) (H10-TEV-Cdc13_(OB23)) (C. glabrata)", "test": "SEC"}, "[8]": {"biological_target": "Cdc13_(OB23) (H10-TEV-Cdc13_(OB23)) (C. glabrata)", "test": "AUC"}, "[9]": {"biological_target": "Cdc13 OB2 domain (Strep-TEV-Strep-OB2, residues 260-396) (C. glabrata)", "test": "SEC"}, "[10]": {"biological_target": "Cdc13_(OB24) (H10-TEV-Cdc13_(OB24)) (C. glabrata)", "test": "mass photometry"}, "[11]": {"biological_target": "Cdc13_(OB24) (H10-TEV-Cdc13_(OB24)) (C. glabrata)", "test": "SEC"}, "[12]": {"biological_target": "Cdc13_(OB24) (H10-TEV-Cdc13_(OB24)) (C. glabrata)", "test": "AUC"}, "[13]": {"biological_target": "OB1 ΔC-ter A40W D94A (C. glabrata)", "test": "AUC"}, "[14]": {"biological_target": "OB1 ΔC-ter A40W (C. glabrata)", "test": "AUC"}, "OB3": {"biological_target": "T1, OB3 (Candida glabrata, UniProt Q6FT40 401-593)", "T1 sequence": "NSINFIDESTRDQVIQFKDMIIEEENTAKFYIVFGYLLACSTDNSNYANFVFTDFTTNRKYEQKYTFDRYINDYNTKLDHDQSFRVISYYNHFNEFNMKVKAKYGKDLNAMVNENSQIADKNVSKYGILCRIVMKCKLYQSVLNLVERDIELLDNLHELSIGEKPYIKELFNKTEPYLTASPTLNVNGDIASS", "test": "EMSA"}, "Cdc13OB23": {"biological_target": "T2, Cdc13OB23 (Candida glabrata, UniProt Q6FT40 260-593)", "T2 sequence": "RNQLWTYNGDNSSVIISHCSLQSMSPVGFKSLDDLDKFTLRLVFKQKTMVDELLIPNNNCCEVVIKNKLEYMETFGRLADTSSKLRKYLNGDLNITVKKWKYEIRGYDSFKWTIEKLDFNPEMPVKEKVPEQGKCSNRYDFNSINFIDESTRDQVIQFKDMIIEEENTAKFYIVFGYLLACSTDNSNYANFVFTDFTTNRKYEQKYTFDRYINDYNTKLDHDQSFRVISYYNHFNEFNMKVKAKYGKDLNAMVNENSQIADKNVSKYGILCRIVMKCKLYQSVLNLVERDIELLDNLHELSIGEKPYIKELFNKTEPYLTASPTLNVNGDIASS", "test": "fluorescence polarization"}, "Cdc13OB34": {"biological_target": "T3, Cdc13OB34 (Candida glabrata, UniProt Q6FT40 401-753)", "T3 sequence": "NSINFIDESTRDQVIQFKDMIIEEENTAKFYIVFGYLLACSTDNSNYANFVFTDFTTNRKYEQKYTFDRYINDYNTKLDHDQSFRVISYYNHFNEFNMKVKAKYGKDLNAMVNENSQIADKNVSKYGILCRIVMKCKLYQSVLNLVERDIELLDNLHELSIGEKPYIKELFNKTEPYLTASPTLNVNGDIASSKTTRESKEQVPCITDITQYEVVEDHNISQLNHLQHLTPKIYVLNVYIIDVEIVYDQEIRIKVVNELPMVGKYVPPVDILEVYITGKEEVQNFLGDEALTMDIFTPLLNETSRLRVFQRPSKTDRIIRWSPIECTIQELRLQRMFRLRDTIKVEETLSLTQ", "test": "fluorescence polarization"}, "Cdc13OB234": {"biological_target": "T4, Cdc13OB234 (Candida glabrata, UniProt Q6FT40 260-753)", "T4 sequence": "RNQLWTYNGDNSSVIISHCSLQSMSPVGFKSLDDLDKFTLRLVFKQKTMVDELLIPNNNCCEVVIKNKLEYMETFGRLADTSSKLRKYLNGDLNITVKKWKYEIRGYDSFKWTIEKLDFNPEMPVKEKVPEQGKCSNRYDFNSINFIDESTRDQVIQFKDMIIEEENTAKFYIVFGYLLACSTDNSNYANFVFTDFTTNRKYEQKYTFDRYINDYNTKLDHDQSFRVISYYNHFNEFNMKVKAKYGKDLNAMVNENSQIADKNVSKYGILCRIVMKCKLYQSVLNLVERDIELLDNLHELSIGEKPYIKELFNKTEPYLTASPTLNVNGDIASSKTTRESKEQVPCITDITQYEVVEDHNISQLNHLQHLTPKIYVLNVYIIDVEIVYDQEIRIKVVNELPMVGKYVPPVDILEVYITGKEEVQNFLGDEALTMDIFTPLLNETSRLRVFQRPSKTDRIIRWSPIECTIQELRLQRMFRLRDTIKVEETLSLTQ", "test": "fluorescence polarization"}}, "data": [{"molecule": "Cdc13_(OB234), purified, large tag removed (domain or fragment)", "values": [{"measurement": "stoichiometry N", "setting": "[1]", "result": 2}]}, {"molecule": "Cdc13 OB1 domain (Strep-TEV-Strep-OB1, residues 1-176) (domain or fragment)", "values": [{"measurement": "relative abundance of species 1 (monomer)", "setting": "[2]", "result": 72, "unit": "%"}, {"measurement": "relative abundance of species 2", "setting": "[2]", "result": 4, "unit": "%"}, {"measurement": "relative abundance of species 3", "setting": "[2]", "result": 3, "unit": "%"}, {"measurement": "relative abundance of species 4", "setting": "[2]", "result": 4.5, "unit": "%"}, {"measurement": "relative abundance of species 5", "setting": "[2]", "result": 2, "unit": "%"}]}, {"molecule": "Cdc13 OB1 domain without its C-terminal tail (OB1 ΔC-ter) (domain or fragment)", "values": [{"measurement": "relative abundance of species 1", "setting": "[3]", "result": 95, "unit": "%"}, {"measurement": "relative abundance of species 2", "setting": "[3]", "result": 4, "unit": "%"}, {"measurement": "relative abundance of species 3", "setting": "[3]", "result": 1, "unit": "%"}]}, {"molecule": "OB1 ΔC-ter Q39A A40W (domain or fragment)", "values": [{"measurement": "relative abundance of species 1", "setting": "[4]", "result": 97.8, "unit": "%"}, {"measurement": "relative abundance of species 2", "setting": "[4]", "result": 2.2, "unit": "%"}]}, {"molecule": "OB1 ΔC-ter Q39A (domain or fragment)", "values": [{"measurement": "relative abundance of species 1", "setting": "[5]", "result": 95.8, "unit": "%"}, {"measurement": "relative abundance of species 2", "setting": "[5]", "result": 3.1, "unit": "%"}, {"measurement": "relative abundance of species 3", "setting": "[5]", "result": 1.1, "unit": "%"}]}, {"molecule": "Cdc13_(OB23) (H10-TEV-Cdc13_(OB23)) (domain or fragment)", "values": [{"measurement": "stoichiometry N", "setting": "[6]", "result": 2}, {"measurement": "stoichiometry N", "setting": "[7]", "result": 2}, {"measurement": "stoichiometry N", "setting": "[8]", "result": 2}]}, {"molecule": "Cdc13 OB2 domain (Strep-TEV-Strep-OB2, residues 260-396) (domain or fragment)", "values": [{"measurement": "stoichiometry N", "setting": "[9]", "result": 2}]}, {"molecule": "Cdc13_(OB24) (H10-TEV-Cdc13_(OB24)) (domain or fragment)", "values": [{"measurement": "stoichiometry N", "setting": "[10]", "result": 2}, {"measurement": "stoichiometry N", "setting": "[11]", "result": 2}, {"measurement": "stoichiometry N", "setting": "[12]", "result": 2}]}, {"molecule": "OB1 ΔC-ter A40W D94A (domain or fragment)", "values": [{"measurement": "relative abundance of species 1", "setting": "[13]", "result": 97, "unit": "%"}, {"measurement": "relative abundance of species 2", "setting": "[13]", "result": 3, "unit": "%"}]}, {"molecule": "OB1 ΔC-ter A40W (domain or fragment)", "values": [{"measurement": "relative abundance of species 1", "setting": "[14]", "result": 97.9, "unit": "%"}, {"measurement": "relative abundance of species 2", "setting": "[14]", "result": 2.1, "unit": "%"}]}, {"molecule": "TTTTTTTTTTTTTTTTTTTTTTTTTTTTTTTTTTTTTTTTTTTTTTTT (ssDNA)", "note": "[polyT]", "values": [{"measurement": "binding result", "setting": "OB3", "result": "no binding"}]}, {"molecule": "TGTGGGGTCTGGGTGCTGTGGGGTCTGGGTGCTGTGGGGTCTGGGTGC (ssDNA)", "note": "[6FAM-CgTelo]", "values": [{"measurement": "Kd", "setting": "Cdc13OB23", "result": "28.5 ± 3.8", "unit": "nM"}, {"measurement": "Kd", "setting": "Cdc13OB34", "result": "299 ± 41", "unit": "nM"}, {"measurement": "Kd", "setting": "Cdc13OB234", "result": "13.5 ± 1.7", "unit": "nM"}]}]}
